# According to US20090117590A1, “Human calcium sensitive potassium channel beta3 subunit proteins, encoding nucleic acid and uses thereof” (priority 1999, published 2009):
# Like-named read-outs stand apart in the source and are kept apart here.
# B1: β3a: β3a subunit of human calcium sensitive potassium channel, amino acid sequence SEQ. ID. NO.:4 (protein, listed as Homo Sapiens)
# chain: MQPFSIPVQITLQGSRRRQGRTAFPASGKKRETDYSDGDPLDVHKRLPSSTGEDRAVMLGFAMMGFSVLMFFLLGTTILKPFMLSIQREESTCTAIHTDIMDDWLDCAFTCGVHCHGQGKYPCLQVFVNLSHPGQKALLHYNEEAVQINPKCFYTPKCHQDRSDLLNSALDIKEFFDHKNGTPFSCFYSPASQSEDVILIKKYDQMAIFHCLFWPSLTLLGGALIVGMVRLTQHLSLLCEKYSTVVRDEVGGKVPYIEQHQFKLCIMRRSKGRAEKS
# B2: β2: β2 subunit of human calcium sensitive potassium channel, amino acid sequence SEQ. ID. NO.:2 (protein, listed as Homo Sapiens)
# chain: MFIWTSGRTSSSYRHDEKRNIYQKIRDHDLLDKRKTVTALKAGEDRAILLGLAMMVCSIMMYFLLGITLLRSYMQSVWTEESQCTLLNASITETFNCSFSCGPDCWKLSQYPCLQVYVNLTSSGEKLLLYHTEETIKINQKCSYIPKCGKNFEESMSLVNVVMENFRKYQHFSCYSDPEGNQKSVILTKLYSSNVLFHSLFWPTCMMAGGVAIVAMVKLTQYLSLLCERIQRINR
# B3: β3d: β3d subunit of human calcium sensitive potassium channel, amino acid sequence SEQ. ID. NO.:10 (protein)
# chain: MDFSPSSELGFHFVAFILLTRHRTAFPASGKKRETDYSDGDPLDVHKRLPSSTGEDRAVMLGFAMMGFSVLMFFLLGTTILKPFMLSIQREESTCTAIHTDIMDDWLDCAFTCGVHCHGQGKYPCLQVFVNLSHPGQKALLHYNEEAVQINPKCFYTPKCHQDRNDLLNSALDIKEFFDHKNGTPFSCFYSPASQSEDVILIKKYDQMAIFHCLFWPSLTLLGGALIVGMVRLTQHLSLLCEKYSTVVRDEVGGKVPYIEQHQFKLCIMRRSKGRAEKS
# B4: β3b: β3b subunit of human calcium sensitive potassium channel, amino acid sequence SEQ. ID. NO.:6 (protein, listed as Homo Sapiens)
# chain: MTAFPASGKKRETDYSDGDPLDVHKRLPSSTGEDRAVMLGFAMMGFSVLMFFLLGTTILKPFMLSIQREESTCTAIHTDIMDDWLDCAFTCGVHCHGQGKYPCLQVFVNLSHPGQKALLHYNEEAVQINPKCFYTPKCHQDRNDLLNSALDIKEFFDHKNGTPFSCFYSPASQSEDVILIKKYDQMAIFHCLFWPSLTLLGGALIVGMVRLTQHLSLLCEKYSTVVRDEVGGKVPYIEQHQFKLCIMRRSKGRAEKS
# B5: β3c: β3c subunit of human calcium sensitive potassium channel, amino acid sequence SEQ. ID. NO.:8 (protein)
# chain: MFPLLYELTAVSPSPFPQRTAFPASGKKRETDYSDGDPLDVHKRLPSSTGEDRAVMLGFAMMGFSVLMFFLLGTTILKPFMLSIQREESTCTAIHTDIMDDWLDCAFTCGVHCHGQGKYPCLQVFVNLSHPGQKALLHYNEEAVQINPKCFYTPKCHQDRSDLLNSALDIKEFFDHKNGTPFSCFYSPASQSEDVILIKKYDQMAIFHCLFWPSLTLLGGALIVGMVRLTQHLSLLCEKYSTVVRDEVGGKVPYIEQHQFKLCIMRRSKGRAEKS
# B6: β1: previously known human calcium sensitive potassium channel β1 subunit, SEQ. ID. NO.:11, GenBank U25138 (protein)
# chain: MVKKLVMAQKRGETRALCLGVTMVVCAVITYYILVTTVLPLYQKSVWTQESKCHLIETNIRDQEELKGKKVPQYPCLWVNVSAAGRWAVLYHTEDTRDQNQQCSYIPGSVDNYQTARADVEKVRAKFQEQQVFYCFSAPRGNETSVLFQRLYGPQALLFSLFWPTFLLTGGLLIIAMVKSNQYLSILAAQK
# What was measured:
# [1] = system: α subunit of a human calcium sensitive potassium channel (human Slowpoke α); assay: Electrophysiological analysis of β subunits co-expressed with the α subunit in Xenopus oocytes, inside-out patches; assay type: cell-based; conditions: for inactivation of calcium sensitive potassium currents: co-expressed with the α subunit; for V1/2 (half-maximal activation, Boltzmann fit to normalized conductances) / changes in the kinetics and voltage dependence of the channels formed by α subunits: inside-out patches, internal Ca2+ 30 μM; for V1/2 (half-maximal activation, Boltzmann fit to normalized conductances): α and β cRNAs 1:10 (β in excess), α subunit alone 20 mV; for shift of the voltage dependence compared to channels containing only α subunits: micromolar intracellular Ca2+; for changes in the kinetics and voltage dependence of the channels formed by α subunits: α and β cRNAs 1:10
# Procedure: The voltage clamp protocol consisted of a pre-pulse to −160 mV (200 ms), followed by 20 mV depolarizing steps from −80 to +80 mV (500 ms); holding potential was −80 mV; internal Ca^2+ was 30 μM. […] FIG. 7B: Boltzmann equations were fit to normalized conductances for the records shown in 7A, which were calculated from peak currents and plotted as function of test potential. V1/2 values are: 20 mV (α subunit alone); −55 mV (α+β2 subunit); 45.36 mV (α+β3α subunit); 20 mV (α+β3c subunit). […] Inactivation rates and fractional inactivating current were calculated as described in Example 2.
# The β2, β3a, β3b, β3c, and β3d subunits of the human calcium sensitive potassium channel have been expressed in Xenopus oocytes, both by themselves and in combination with an α subunit of a large-conductance calcium-sensitive potassium channel (maxi-K channel). […] The rates of inactivation produced by β2, β3a and β3c are dependent upon voltage and internal calcium concentration; inactivation time constants reach a maximum at high depolarizations and high micromolar calcium for β2, β3a and β3c, τinact ˜30-40 ms at 80 mV with 30 μM intracellular Ca^2+. […] (McManus et al., 1995, Neuron 14:645-650).
# Electrophysiological analysis: cRNAs were synthesized in vitro from plasmids encoding human Slowpoke α or the β2, β3a, β3b, β3c, or β3d subunits and injected into Xenopus oocytes (1.5 ng/oocyte of α subunit RNA +/−β subunit RNA at 1, 5, or 10× molar excess). Calcium sensitive potassium currents were recorded in inside-out patches. Recordings were performed under ionic conditions of symmetrical potassium. The standard pipette and bath solutions contained 116 mM potassium gluconate, 4 mM potassium chloride, 10 mM HEPES, pH 7.2. CaCl2 was added to the bath solution to give final concentrations of free ionized calcium of 3-30 μM, taking into account the stability constant for calcium gluconate (15.9 M^−1). Currents were recorded using an EPC-7 amplifier (HEKA). The pClamp6.0 program (Axon Instruments) was used to generate voltage-clamp commands for data acquisition, and for analysis. NPO-voltage relations were determined at 3, 10 and 30 μM bath calcium using two methods: (1) calculation of macroscopic conductance from peak or steady-state currents at test potentials (−80 to 80 mV), or (2) measurement or calculation of tail currents peaks (−80 mV) at test potentials. Boltzmann functions were fit to the data and used to derive the half-maximal activation parameter (V1/2). Maximal inactivation parameters (30 μM Ca^2+ and 80 mV) were calculated from current traces or averaged current traces. Inactivation rates were determined from single exponential fits. Fractional non-inactivating current was calculated as steady-state/peak current; fractional inactivating current was estimated as peak current minus steady-state current divided by peak current.
# [2] = system: α subunit of a human calcium sensitive potassium channel (human Slowpoke α); conditions: previously described (McManus et al., 1995); cited from earlier work
Molecule,inactivation of calcium sensitive potassium currents [1],"V1/2 (half-maximal activation, Boltzmann fit to normalized conductances) [1]",shift of the voltage dependence compared to channels containing only α subunits [1],"shift in the voltage dependence of activation ([1]; towards negative potentials, with 30 μM Ca2+ in the bath)",changes in the kinetics and voltage dependence of the channels formed by α subunits [1],inactivation of calcium sensitive potassium currents [2]
B1,induce inactivation,45.36 mV,do not shift the voltage dependence,,,
B2,induce inactivation,−55 mV,,~80 mV,,
B3,,,do not shift the voltage dependence,,did not induce noticeable changes,
B4,,,do not shift the voltage dependence,,did not induce noticeable changes,
B5,induce inactivation,20 mV,do not shift the voltage dependence,,,
B6,,,,,,do not induce inactivation
